The source of these data is US20190309072A1 (published 2019).

In one test the target is T1, human ITGa3 protein (human, UniProt P26006 33-991).
T1 chain: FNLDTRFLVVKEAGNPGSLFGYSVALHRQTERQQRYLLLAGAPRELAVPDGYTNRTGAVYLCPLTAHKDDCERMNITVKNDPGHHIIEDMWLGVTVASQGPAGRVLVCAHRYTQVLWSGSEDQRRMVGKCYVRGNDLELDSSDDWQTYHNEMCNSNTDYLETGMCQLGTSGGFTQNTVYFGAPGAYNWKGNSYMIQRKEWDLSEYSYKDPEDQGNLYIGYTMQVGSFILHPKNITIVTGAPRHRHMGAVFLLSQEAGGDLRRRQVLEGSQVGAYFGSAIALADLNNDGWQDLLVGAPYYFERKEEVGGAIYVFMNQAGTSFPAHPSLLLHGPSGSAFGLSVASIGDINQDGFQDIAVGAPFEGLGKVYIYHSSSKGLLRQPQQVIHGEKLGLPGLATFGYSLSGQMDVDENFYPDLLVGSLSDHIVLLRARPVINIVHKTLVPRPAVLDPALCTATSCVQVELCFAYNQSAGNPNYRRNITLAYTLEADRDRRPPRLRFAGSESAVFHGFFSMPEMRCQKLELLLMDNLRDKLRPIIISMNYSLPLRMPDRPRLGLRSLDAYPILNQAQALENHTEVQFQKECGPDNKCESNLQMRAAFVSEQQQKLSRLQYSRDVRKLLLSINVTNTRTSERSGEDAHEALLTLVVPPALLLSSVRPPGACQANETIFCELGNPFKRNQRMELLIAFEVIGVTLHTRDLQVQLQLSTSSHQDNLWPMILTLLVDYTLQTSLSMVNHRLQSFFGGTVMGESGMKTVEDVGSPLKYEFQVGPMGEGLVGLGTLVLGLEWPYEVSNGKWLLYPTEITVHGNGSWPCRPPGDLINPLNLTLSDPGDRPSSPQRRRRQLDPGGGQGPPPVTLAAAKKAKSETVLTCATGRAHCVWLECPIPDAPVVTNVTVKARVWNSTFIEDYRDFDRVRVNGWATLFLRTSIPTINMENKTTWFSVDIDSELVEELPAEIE
The experiment in a line: ELISA; apparent Kd. (An ELISA detects its analyte on a solid surface through an enzyme-linked reagent.)

In test [1] the target is T2, human ITGa3 on human-derived cell lines (human, UniProt P26006 33-1051).
T2 chain: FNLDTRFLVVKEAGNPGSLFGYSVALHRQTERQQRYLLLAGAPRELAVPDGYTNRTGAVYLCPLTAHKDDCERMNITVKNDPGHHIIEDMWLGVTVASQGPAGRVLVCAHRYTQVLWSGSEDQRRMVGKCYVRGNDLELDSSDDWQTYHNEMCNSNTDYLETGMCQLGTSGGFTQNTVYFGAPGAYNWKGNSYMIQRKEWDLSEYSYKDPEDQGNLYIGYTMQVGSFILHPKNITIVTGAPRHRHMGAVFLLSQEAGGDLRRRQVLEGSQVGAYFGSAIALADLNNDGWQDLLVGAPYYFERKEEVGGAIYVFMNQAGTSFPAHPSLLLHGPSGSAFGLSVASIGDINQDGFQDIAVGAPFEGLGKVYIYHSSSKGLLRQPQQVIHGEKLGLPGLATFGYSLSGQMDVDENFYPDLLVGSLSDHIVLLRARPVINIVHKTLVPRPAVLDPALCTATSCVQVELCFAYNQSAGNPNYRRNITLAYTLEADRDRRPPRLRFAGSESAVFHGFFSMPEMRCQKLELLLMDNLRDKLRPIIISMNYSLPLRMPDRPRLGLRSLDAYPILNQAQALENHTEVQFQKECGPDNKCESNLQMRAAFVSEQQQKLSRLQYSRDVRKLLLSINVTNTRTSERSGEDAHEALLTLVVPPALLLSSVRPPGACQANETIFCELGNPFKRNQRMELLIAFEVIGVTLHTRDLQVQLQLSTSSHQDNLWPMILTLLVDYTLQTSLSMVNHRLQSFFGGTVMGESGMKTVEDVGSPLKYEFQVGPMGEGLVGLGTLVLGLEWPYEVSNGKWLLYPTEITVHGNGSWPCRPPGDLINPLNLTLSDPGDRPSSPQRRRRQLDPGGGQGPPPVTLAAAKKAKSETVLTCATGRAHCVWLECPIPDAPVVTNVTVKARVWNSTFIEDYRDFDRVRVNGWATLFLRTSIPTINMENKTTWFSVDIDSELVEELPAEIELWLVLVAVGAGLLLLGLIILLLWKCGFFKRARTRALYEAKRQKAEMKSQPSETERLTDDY
The experiment in a line: FACS; human H292 cells.

The target in test [2] is T3, cynomolgus monkey ITGa3 on cynomolgus-derived primary kidney epithelial cells (cynomolgus monkey, UniProt A0A2K5VFR2 17-1035).
T3 chain: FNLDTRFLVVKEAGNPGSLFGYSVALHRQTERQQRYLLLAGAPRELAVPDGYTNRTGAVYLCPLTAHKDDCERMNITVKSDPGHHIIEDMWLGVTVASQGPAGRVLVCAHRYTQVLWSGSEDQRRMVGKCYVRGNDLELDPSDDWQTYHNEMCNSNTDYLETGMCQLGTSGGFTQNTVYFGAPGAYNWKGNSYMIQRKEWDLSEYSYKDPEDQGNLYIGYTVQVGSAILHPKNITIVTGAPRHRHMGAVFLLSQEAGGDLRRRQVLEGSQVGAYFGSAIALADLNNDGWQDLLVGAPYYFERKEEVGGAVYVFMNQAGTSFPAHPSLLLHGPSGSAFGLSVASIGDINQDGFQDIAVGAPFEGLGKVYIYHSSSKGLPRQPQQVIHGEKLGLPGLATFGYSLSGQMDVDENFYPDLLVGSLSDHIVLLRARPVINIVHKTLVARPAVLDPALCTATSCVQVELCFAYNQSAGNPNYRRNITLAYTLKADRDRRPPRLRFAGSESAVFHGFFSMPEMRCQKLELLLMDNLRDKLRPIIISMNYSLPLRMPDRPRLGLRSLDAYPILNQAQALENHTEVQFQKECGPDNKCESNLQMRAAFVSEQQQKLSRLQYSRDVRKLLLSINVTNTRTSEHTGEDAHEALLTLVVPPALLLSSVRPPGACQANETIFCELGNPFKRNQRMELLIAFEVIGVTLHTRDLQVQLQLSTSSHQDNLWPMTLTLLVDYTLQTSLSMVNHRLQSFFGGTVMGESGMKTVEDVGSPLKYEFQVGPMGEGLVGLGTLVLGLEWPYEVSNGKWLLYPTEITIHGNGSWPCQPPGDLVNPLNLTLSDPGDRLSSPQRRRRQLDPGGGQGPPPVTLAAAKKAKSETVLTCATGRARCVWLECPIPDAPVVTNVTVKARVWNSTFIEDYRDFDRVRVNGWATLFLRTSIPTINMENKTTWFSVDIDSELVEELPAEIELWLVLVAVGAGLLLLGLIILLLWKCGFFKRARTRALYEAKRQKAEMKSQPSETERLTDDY
The experiment in a line: FACS; cyno primary kidney epithelial cells. A general note: In flow cytometry, cells or beads pass a laser one at a time.

B1: anti-ITGa3 huVM2 Hc2T62G/Lc1 antibody (antibody, V domains shown)
VH: QVQLVQSGAEVKKPGSSVKVSCKASGYTFTEYIIHWVRQAPGQGLEWIGWFYPESGSVKYNEGFKGRATITADKSTSTAYMELSSLRSEDTAVYYCARHEERDYYGYYAMDYWGQGTTVTVSS
VL: DIQMTQSPSSLSASVGDRVTITCSASSSISSNYLHWYQQKPGKVPKLLIYRTSNLASGVPSRFSGSGSGTDYTLTISSLQPEDVATYYCQQGSSIPRFTSGGGTKVEIKR
As for B1, the Kd turned out to be 0.18 nM with human ITGa3 protein, 0.27 nM in test [1] and 0.17 nM in test [2].
